In article PMC2192122:

Molecular target: MHC class II molecule I-Ad (mouse (endogenous in A20 lymphoma cells))
Experiment: radioligand binding
Conditions: for relative binding to MHC: scale: relative to unlabeled OVA peptide 323-339

Molecule | relative binding to MHC | IC50
SWM peptide 105-116-[G108] (from UniProt P02185 106-117) | 0.1 | –
OVA peptide 323-339 (unlabeled) (from UniProt P01012 324-340) | – | 131 nM
YLEFIGEAIIHV [SWM peptide 103-114-[G108]] | 0.04 | –
EFISEAIIHLLH [SWM peptide 105-116-[L114]] | 0.18 | –
KYLEFIGEAIIH [SWM peptide 102-113-[G108]] | 0.011 | –
EFISEAIIHVLH [sperm whale myoglobin (SWM) peptide 105-116] | 1.5 | –
IKYLEFIGEAII [SWM peptide 101-112-[G108]] | 0.003 | –
AIIHVLHSRHPG [sperm whale myoglobin (SWM) peptide 110-121] | 0.59 | –
EFISEAIIHILH [SWM peptide 105-116-[I114]] | 0.01 | –
LEFIGEAIIHVL [SWM peptide 104-115-[G108]] | 0.013 | –
EFGSEAIIHVLH [SWM peptide 105-116-[G107]] | 0.34 | –
EFISEAIIPVLH [SWM peptide 105-116-[P113]] | 1.8 | –
